# Measurements: patent US20240002495A1 (MITSUBISHI TANABE PHARMA, published 2024)
# Residue numbers refer to the chain shown, from its start.
# B1: A00-0070 (Fab) (Fab, V domains shown)
# VH: EVQLLESGGGLVQPGGSLRLSCAASGFTFSDYYMNWVRQAPGKGLEWVSSISSSSSYIYYADSVKGRFTISRDNSKNTLYLQMNSLRAEDTAVYYCARDIGGMDVWGQGTLVTVSS
# VL: QSVLTQPPSASGTPGQRVTISCTGSSSNIGAVYNVHWYQQLPGTAPKLLIYRNNQRPSGVPDRFSGSKSGTSASLAISGLRSEDEADYYCQSYDSSRWVFGGGTKLTVL
# notes: parental clone as Fab; also called V29; parental clone (Fab)
# B2: A10-1C04 (Fab) (Fab, V domains shown)
# VH: B1 VH with S53R, S54Y
# VL: B1 VL with N34D, S92T
# notes: Fab secreted by E. coli, tested as culture supernatant; also called V1
# B3: A12-1E04 (Fab) (Fab, V domains shown)
# VH: B1 VH with S53R, S54Y, S56G, I58V
# VL: B1 VL with N34D
# notes: Fab secreted by E. coli, tested as culture supernatant; also called V2
# B4: A12-1H04 (Fab) (Fab, V domains shown)
# VH: B1 VH with N35D, S53R, S54Y, S56G, I58V
# VL: B1 VL
# notes: Fab secreted by E. coli, tested as culture supernatant; also called V3
# B5: A12-1H08 (Fab) (Fab, V domains shown)
# VH: B1 VH with N35D, S53R, S54A, I58V
# VL: B1 VL
# notes: Fab secreted by E. coli, tested as culture supernatant; also called V4
# B6: A13-1F05 (Fab) (Fab, V domains shown)
# VH: B1 VH with S53R, S54Y, S56G
# VL: B1 VL
# notes: Fab secreted by E. coli, tested as culture supernatant; also called V5
# B7: A13-1F07 (Fab) (Fab, V domains shown)
# VH: B1 VH with D31V, S53R, S54Y, S56G, I58V
# VL: B1 VL with S96R
# notes: Fab secreted by E. coli, tested as culture supernatant; also called V6
# B8: A13-1G05 (Fab) (Fab, V domains shown)
# VH: B1 VH with M34V, S53R, S54Y, S56G, I58V
# VL: B1 VL
# notes: Fab secreted by E. coli, tested as culture supernatant; also called V7
# B9: A00-0036 (Fab) (Fab, V domains shown)
# VH: EVQLLESGGGLVQPGGSLRLSCAASGFTFSNYYMHWVRQAPGKGLEWVSSISSSSSYIYYADSVKGRFTISRDNSKNTLYLQMNSLRAEDTAVYYCARLGTRHDAFDIWGQGTLVTVSS
# VL: QSVLTQPPSASGTPGQRVTISCSGSSSNIGNNAVNWYQQLPGTAPKLLIYASNMRRLGVPDRFSGSKSGTSASLAISGLRSEDEADYYCAAWDDSQKAVVFGGGTKLTVL
# notes: parental clone as Fab; also called V30; parental clone (Fab)
# B10: A23-1A05 (Fab) (Fab, V domains shown)
# VH: B9 VH with S53A, S54R, S56R, I58H, G100A, D104N
# VL: B9 VL with N35S, R56V, L57I, A90G, V99L
# notes: Fab secreted by E. coli, tested as culture supernatant; also called V8
# B11: A25-2B02 (Fab) (Fab, V domains shown)
# VH: B9 VH with S53A, S54R, G100A, H103N, D104N
# VL: B9 VL with N31R, R56V, A90W
# notes: Fab secreted by E. coli, tested as culture supernatant; also called V10
# B12: A25-2C02 (Fab) (Fab, V domains shown)
# VH: B9 VH with S53A, S54R, G100A, H103N, D104N
# VL: B9 VL with N31R, R56V, L57S, A90W, A98V, V99G
# notes: Fab secreted by E. coli, tested as culture supernatant; also called V15
# B13: A25-2C06 (Fab) (Fab, V domains shown)
# VH: B9 VH with S53A, S54R, G100A, H103N, D104N
# VL: B9 VL with N31R, R56V, L57I, A90G, A98R, V99Y
# notes: Fab secreted by E. coli, tested as culture supernatant; also called V12
# B14: A25-2C07 (Fab) (Fab, V domains shown)
# VH: B9 VH with S53A, S54R, G100A, H103N, D104N
# VL: B9 VL with R56G, L57S, A98G, V99Q
# notes: Fab secreted by E. coli, tested as culture supernatant; also called V13
# B15: A25-2D01 (Fab) (Fab, V domains shown)
# VH: B9 VH with S53A, S54R, G100A, H103N, D104N
# VL: B9 VL with N31R, R56V, L57I, V99W
# notes: Fab secreted by E. coli, tested as culture supernatant; also called V9
# B16: A25-2E04 (Fab) (Fab, V domains shown)
# VH: B9 VH with S53A, S54R, G100A, H103N, D104N
# VL: B9 VL with S26C, N31R, R56V, L57I, A90E, A98G
# notes: Fab secreted by E. coli, tested as culture supernatant; also called V11
# B17: A25-2H11 (Fab) (Fab, V domains shown)
# VH: B9 VH with S53A, S54R, G100A, H103N, D104N
# VL: B9 VL with N31S, N35S, R56G, L57S, A98V
# notes: Fab secreted by E. coli, tested as culture supernatant; also called V14
# B18: A25-3G05 (Fab) (Fab, V domains shown)
# VH: B9 VH with N31H, S53A, S54L, K65R, G100A, H103R
# VL: B9 VL with R56G, A90G, A98V, V99F
# notes: Fab secreted by E. coli, tested as culture supernatant; also called V16
# B19: A25-3H04 (Fab) (Fab, V domains shown)
# VH: B9 VH with N31R, S53A, S54Q, Y57H, K65E, G100A, H103Q, D104N
# VL: B9 VL with N31R, L57S, A90S, A98V
# notes: Fab secreted by E. coli, tested as culture supernatant; also called V17
# B20: A26-1F02 (Fab) (Fab, V domains shown)
# VH: B9 VH with S53A, S54R, I58L, G100A, D104V
# VL: B9 VL with L57P, A90E
# notes: Fab secreted by E. coli, tested as culture supernatant; also called V18
# B21: A26-2A05 (Fab) (Fab, V domains shown)
# VH: B9 VH with S53A, S54R, G100A, D104G
# VL: B9 VL with L57M, V99F
# notes: Fab secreted by E. coli, tested as culture supernatant; also called V19
# B22: A26-2B01 (Fab) (Fab, V domains shown)
# VH: B9 VH with S53A, S54R, G100A, D104N
# VL: B9 VL with V99W
# notes: Fab secreted by E. coli, tested as culture supernatant; also called V20
# B23: A27-1A06 (Fab) (Fab, V domains shown)
# VH: B9 VH with S53A, S54R, I58R, G100A, D104L
# VL: B9 VL with L57P, A98V, V99F
# notes: Fab secreted by E. coli, tested as culture supernatant; also called V21
# B24: A27-1C06 (Fab) (Fab, V domains shown)
# VH: B9 VH with S53A, S54R, G100A, D104S
# VL: B9 VL with A90G, V99F
# notes: Fab secreted by E. coli, tested as culture supernatant; also called V22
# B25: A28-1C08 (Fab) (Fab, V domains shown)
# VH: B9 VH with N31R, S53A, S54R, G100A, H103R
# VL: B9 VL with N31R, N35S, A90W
# notes: Fab secreted by E. coli, tested as culture supernatant; also called V23
# B26: A28-1G07 (Fab) (Fab, V domains shown)
# VH: B9 VH with S53A, S54R, I58R, G100A, D104S
# VL: B9 VL with N31H, N35S, A90G, A98V
# notes: Fab secreted by E. coli, tested as culture supernatant; also called V24
# Biological target: T1, biotinylated 6His tag-AviTag-linked mature human IL-33 (residues 112 to 270) (human, UniProt O95760 112-270, biotin on the AviTag portion (BirA))
# T1 construct: made in E. coli; also called biotinylated human IL-33 protein
# T1 sequence: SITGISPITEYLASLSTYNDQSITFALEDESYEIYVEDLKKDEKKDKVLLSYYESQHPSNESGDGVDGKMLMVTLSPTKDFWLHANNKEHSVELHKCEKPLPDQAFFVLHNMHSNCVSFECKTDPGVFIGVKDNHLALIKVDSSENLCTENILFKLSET
# Assay: SPR, IL-33 on chip, Fab supernatant as analyte
# Procedure: (§1) The library after the enrichment was used to construct a library of Escherichia coli secreting and expressing Fab. The culture supernatants of several hundreds of clones of Escherichia coli were subjected to measurement of dissociation rate constant (koff) by surface plasmon resonance (SPR) (ProteOn XPR36, available from Bio-Rad Laboratories, Inc.). The biotinylated human IL-33 protein (4 μg/mL) and cynomolgus monkey IL-33 protein (4 μg/mL) were loaded as ligands on a sensor chip (NLC sensor chip, available from Bio-Rad Laboratories, Inc.), to immobilize the human IL-33 protein at an amount equivalent to 1300 to 1600 RU, and the cynomolgus monkeyIL-33 protein at an amount equivalent to 1100 to 1500 RU. The culture supernatant of Escherichia coli was then loaded thereon as analyte to obtain a sensorgram with association phase of one minute and dissociation phase of 10 to 30 minutes. The sensorgram was subjected to interspot correction and blank correction using an SPR data analysis program (ProteOn Manager v3.1.0, available from Bio-Rad Laboratories, Inc.), and then values of koff were determined by off-rate analysis of Langmuir model.
Binder,Human IL-33 Binding Amount (RU),koff [s⁻¹]
B1,571,0.00427
B2,26,≤ 1e-05
B3,414,2.19e-05
B4,94,1.94e-05
B5,77,1e-05
B6,127,1.32e-05
B7,112,1e-05
B8,59,1e-05
B9,78,0.0152
B10,52,1.58e-05
B11,256,1e-05
B12,930,1e-05
B13,480,1.36e-05
B14,334,3.41e-05
B15,950,1e-05
B16,195,1.27e-05
B17,534,1.22e-05
B18,135,1.34e-05
B19,0.62,1e-05
B20,96,1e-05
B21,153,1e-05
B22,364,1e-05
B23,306,1e-05
B24,294,1e-05
B25,156,1e-05
B26,165,1e-05

# Biological target: T2, 6His-AviTag-linked cynomolgus monkey IL-33 (residues 112 to 269) (cynomolgus monkey, UniProt O95760 112-269 (human entry), biotin on the AviTag portion (BirA) in the SPR of Example 7; used without biotinylation in Example 10)
# T2 construct: GenBank EHH57404 printed; also called cynomolgus monkey IL-33 protein; mature cynomolgus monkey IL-33
# T2 chain: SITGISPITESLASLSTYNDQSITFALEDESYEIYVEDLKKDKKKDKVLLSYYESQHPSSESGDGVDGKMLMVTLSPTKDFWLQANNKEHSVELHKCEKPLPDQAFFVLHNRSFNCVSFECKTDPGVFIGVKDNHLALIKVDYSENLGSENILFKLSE
# Assay: SPR, IL-33 on chip, Fab supernatant as analyte
# Procedure: as §1
Binder,Cynomolgus Monkey IL-33 Binding Amount (RU),koff [s⁻¹]
B1,270,0.00522
B2,20,0.000165
B3,512,5.58e-05
B4,131,4.83e-05
B5,102,7.51e-05
B6,171,5.79e-05
B7,151,3.48e-05
B8,80,5.45e-05
B9,59,0.0347
B10,54,2.61e-05
B11,237,1e-05
B12,839,1e-05
B13,501,1.59e-05
B14,330,7.37e-05
B15,832,1e-05
B16,199,1e-05
B17,492,2.57e-05
B18,143,2.02e-05
B19,179,1e-05
B20,100,1e-05
B21,147,1e-05
B22,363,1e-05
B23,320,1e-05
B24,304,1.14e-05
B25,144,1e-05
B26,173,1.05e-05
